From article PMC6706414 come the findings set out here.

The assay has as its target Mimic of H2B ubiquitinated nucleosome core particle with H3K36M (ubiquitin fused to H2A R17, H2B, H3K36M, H4, 149 bp 601 DNA) (S. cerevisiae | Xenopus laevis) (UniProt P0CG63). The experiment in a line: native gel or EMSA; native PAGE; NCPs and Set2 incubated for 1 h on ice in 25 mM HEPES, pH 7.5, 50 mM NaCl, 1 mM DTT, 160 μm SAM.
UniProt P0CG63, sequence (P0CG63 whole entry, looked up, the tested form may be a part): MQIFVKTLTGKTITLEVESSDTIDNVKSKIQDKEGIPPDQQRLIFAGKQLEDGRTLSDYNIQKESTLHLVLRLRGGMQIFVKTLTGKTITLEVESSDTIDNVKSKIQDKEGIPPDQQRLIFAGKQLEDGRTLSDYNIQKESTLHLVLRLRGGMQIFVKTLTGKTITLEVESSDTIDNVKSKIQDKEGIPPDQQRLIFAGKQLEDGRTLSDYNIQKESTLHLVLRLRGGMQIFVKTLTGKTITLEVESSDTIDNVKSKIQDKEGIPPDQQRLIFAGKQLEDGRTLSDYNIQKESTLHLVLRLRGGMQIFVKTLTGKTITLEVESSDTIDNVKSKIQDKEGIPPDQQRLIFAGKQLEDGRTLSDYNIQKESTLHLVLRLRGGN

On to “Chaetomium thermophilum Set2 methyltransferase, full-length (enzyme)”, for which the percent of the NCP band shifted at twofold excess of Set2 was found to be 50%.
